B1: murine IL-17E: Murine IL-17E from R&D Systems; predominant form starting at Val 17 of GenBank NP 542767 (protein)
chain: VSLRIQEGCSHLPSCCPSKEQEPPEEWLKWSSASVSPPEPLSHTHHAESCRASKDGPLNSRAISPWSYELDRDLNRVPQDLYHARCLCPHCVSLQTGSHMDPLGNSVPLYHNQTVFYRRPCHGEEGTHRRYCLERRLYRVSLACVCVRPRVMA
B2: human IL-17E: Recombinant human IL-17E from PeproTech; two 145 amino acid chains, predominant form starting at Tyr 33 of GenBank AAG40848 (protein, listed as Homo sapiens)
chain: YSHWPSCCPSKGQDTSEELLRWSTVPVPPLEPARPNRHPESCRASEDGPLNSRAISPWRYELDRDLNRLPQDLYHARCLCPHCVSLQTGSHMDPRGNSELLYHNQTVFYRRPCHGEKGTHKGYCLERRLYRVSLACVCVRPRVMG

Legend:
[1] = tested on: IkappaB alpha (NF-kappaB pathway); test: NF-kappaB pathway activation: IkappaB alpha phosphorylation in WEHI-231 cells; assay type: cell-based; details: 0.7 μg per 5×10^6 WEHI-231 cells, 0, 2, 5 minutes
Description: The ability of both human and murine interleukin 17E to activate proteins in the Nuclear Factor-kappa B (NF-kappaB) pathway was examined using the B cell lymphoma cell line WEHI-231. […] Activation of the NK-kappaB pathway was assessed by increased phosphorylation of the protein IkappaB alpha. […] The activation of NF-kappa B is associated with the phosphorylation of IkappaB alpha in response to certain stimuli.
A total 5×10^6 cells per sample were stimulated with 0.7 μg of either human IL-17E (hIL-17E) or murine IL-17E (mIL-17E) at 37° C. Cells were lysed at time points t=0, 2, and 5 minutes in lysis buffer for 30 minutes on ice, followed by centrifugation for 10 minutes. Samples containing approximately 40 μg of protein were separated by SDS-PAGE, followed by transfer to membranes for Western blotting.
Blots were incubated with rabbit anti-phospho-IkappaB-alpha antibodies, followed by horesradish peroxidase (HRP)-conjugated anti-rabbit antibodies. Blots were exposed to autoradiography film and developed to detect phosphorylated IkB (at approximately 41 kD) by chemiluminescence.
To assess equivalence in protein loading among lanes in both experiments, blots were stripped of antibodies and incubated with mouse anti-GAPDH antibodies and HRP-conjugated anti-mouse antibodies, followed by chemiluminescence-based detection.

[2] = tested on: human melanoma C8161 xenograft; test: Antitumour activity in murine xenograft model of human melanoma C8161; assay type: in vivo, CD-1 athymic nude mice
Description: Human melanoma cell line C8161 was grown in RPMI 1640 medium (Wisent Inc., St. Bruno, QC) with 10% fetal bovine serum, penicillin (100 U/ml), streptomycin ([…]) (Wisent Inc.) at 37° C. under 95% air and 5% CO2, and maintained with routine media changes. Adherent C8161 cells were passaged by trypsinization with 0.025% trypsin. CD-1 athymic nude mice and C57BL/6 (6-8 weeks old, 20-25 g, female) were purchased from Charles River (Montreal, QC).
Human tumour xenografts were established in mice. Briefly, human tumour cells were harvested at approximately 80% confluence in cell culture medium and resuspended in sterile PBS. Ten million tumour cells in 100 μl were subcutaneously implanted into the right flank of CD-1 athymic nude mice. When tumours reached a volume of 50-100 mm^3, mice were randomly separated into two groups of 10 animals and treated with BD-BRM until the endpoint of the experiment. Anti-tumour activity was evaluated and tumour volume was estimated by caliper measurements, using the formula: Length×Width×Height×/2. Tumour weight was determined from tumour tissue surgically excised from the animal on the last day of the experiment. The percentage of inhibition (%)=(mean tumour weight of control animals−mean tumour weight of drug-treated group)/mean tumour weight of controls×100. A p value of ≦0.05 was considered to be statistically significant.
Mice bearing human melanoma C8161 xenograft were treated intraperitoneally with BD-BRM or PBS for 4 weeks. Briefly, human melanoma C8161 cells were subcutaneously injected into the right flank of CD-1 nude mice as described above. The mice were then administered i.p. with 0.2 ml of PBS or BD-BRM daily when tumours reached a volume of 50-100 mm^3.
Recombinant human IL-17E was obtained from PeproTech, Inc., and is present in the preparation as a 33.8 kDA disulphide linked homodimer of two 145 amino acid polypeptide chains. The predominant form of IL-17E in this preparation is the form starting at Tyr 33 of the human sequence provided by GenBank Accession No. AAG40848. Human melanoma C8161 cells (10^6 cells in 100 μl PBS) were subcutaneously implanted into the right flank of CD-1 athymic nude mice. When tumours reached a volume of 50-100 mm^3, mice were randomly separated into two groups of 10 animals and treated as follows:
Group I: 100 μl of PBS intraperitoneally (i.p.) per mouse every other day until the endpoint of the experiment; and
Group II: 0.04 mg/kg of recombinant human IL-17E intraperitoneally (i.p.) every other day until the endpoint of the experiment.
The size of the tumours was measured by caliper measurements throughout the experiment. Tumour volume was determined using the formula (Length×Width×Height/2). T-tests were performed to assess the statistical significance of differences in tumour sizes. A p value of ≦0.05 was considered to be statistically significant.
The effect of human IL-17E dosage on antitumour efficacy was examined using a murine xenograft model of human melanoma tumour growth. Human melanoma C8161 cells (10^6 cells in 100 μl PBS) were subcutaneously implanted into the right flank of CD-1 athymic nude mice. When tumours reached a volume of 50-100 mm^3, mice were randomly separated into four groups of 10 animals and treated as follows:
Group I: 100 μl of PBS subcutaneously (s.c.) per mouse every other day until the endpoint of the experiment; […]

Molecule | levels of phosphorylated IkappaB alpha (p-IkB-α) [1] | antitumour efficacy, comparison of i.p. and i.v. routes of administration ([2]; 0.04 mg/kg murine IL-17E every other day) | tumour growth (tumour weight) vs PBS ([2]; 0.04 mg/kg murine IL-17E intraperitoneally every other day) | tumour growth (tumour weight) vs PBS ([2]; 0.04 mg/kg murine IL-17E intravenously every other day) | tumour growth (tumour volume) as compared to PBS ([2]; 0.04 mg/kg recombinant human IL-17E i.p. every other day) | antitumour effect with increasing doses ([2]; 0.0018, 0.016, 0.144 mg/kg s.c. every other day)
B1 | increased | approximately equivalent antitumour efficacy | inhibit tumour growth | inhibit tumour growth |  | 
B2 | increased |  |  |  | significantly inhibit tumour growth | dose-response effect
